Positions count from the first letter of the chain named.
Legend:
[1] = biological target: T1, human BCMA on the surface of cell lines (NCI-H929, MM.1S, OPM-2, RPMI-8226, Daudi, Raji, MOLP-8, U266) (human, UniProt Q02223 1-184); assay: cell-based or functional assay
T1 sequence: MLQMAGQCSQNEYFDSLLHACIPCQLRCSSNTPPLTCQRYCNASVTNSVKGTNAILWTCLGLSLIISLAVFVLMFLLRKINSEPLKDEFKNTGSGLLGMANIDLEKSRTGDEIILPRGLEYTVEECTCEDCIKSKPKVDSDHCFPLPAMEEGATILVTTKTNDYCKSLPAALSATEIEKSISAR

[2] = biological target: T1, human BCMA on the surface of cell lines …; assay: cell-based or functional assay; remark: listed apart in the source
[3] = biological target: T2, mouse BCMA-MFC (BCMA with C-terminal mFc tag) (mouse); assay: SPR Biacore, 25 C, mAb captured via anti-hFc
T2 construct: Tested at a single concentration of 30 nM; also called mBCMA.mFc
T2 chain: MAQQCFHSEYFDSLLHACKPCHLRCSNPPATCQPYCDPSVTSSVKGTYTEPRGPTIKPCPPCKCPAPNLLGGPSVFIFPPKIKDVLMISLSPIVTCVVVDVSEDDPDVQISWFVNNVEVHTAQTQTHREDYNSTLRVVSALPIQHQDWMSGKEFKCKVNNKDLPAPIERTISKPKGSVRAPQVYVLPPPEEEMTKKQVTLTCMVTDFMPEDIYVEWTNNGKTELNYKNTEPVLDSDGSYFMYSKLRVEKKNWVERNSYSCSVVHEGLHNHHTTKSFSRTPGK
Description: (§1) The CM5 Biacore sensor surface was derivatized by amine coupling with a monoclonal mouse anti-human Fc antibody (GE, #BR-1008-39) to capture purified anti-BCMA mAbs and anti-BCMA×anti-CD3 bispecific mAbs. All Biacore binding studies were performed in a buffer composed of 0.01M HEPES pH 7.4, 0.15M NaCl, 3 mM EDTA, 0.05% v/v Surfactant P20 (HBS-ET running buffer). […] Antigen samples were then injected over the anti-BCMA and anti-BCMA×anti-CD3 bispecific mAbs captured surfaces at a flow rate of 30 μL/minute. Antibody-reagent association was monitored for 5 minutes while dissociation in HBS-ET running buffer was monitored for 10 minutes. All of the binding kinetics experiments were performed at 25° C. Kinetic association (kₐ) and dissociation (kd) rate constants were determined by fitting the real-time sensorgrams to a 1:1 binding model using Scrubber 2.0c curve fitting software. Binding dissociation equilibrium constants (KD) and dissociative half-lives (t1/2) were calculated from the kinetic rate constants as: […]

[4] = biological target: T3, human BCMA-MFC (extracellular domain of human BCMA with C-terminal mFc tag) (human); assay: SPR Biacore, 25 C, mAb captured via anti-hFc
T3 construct: also called hBCMA.mFc
T3 chain: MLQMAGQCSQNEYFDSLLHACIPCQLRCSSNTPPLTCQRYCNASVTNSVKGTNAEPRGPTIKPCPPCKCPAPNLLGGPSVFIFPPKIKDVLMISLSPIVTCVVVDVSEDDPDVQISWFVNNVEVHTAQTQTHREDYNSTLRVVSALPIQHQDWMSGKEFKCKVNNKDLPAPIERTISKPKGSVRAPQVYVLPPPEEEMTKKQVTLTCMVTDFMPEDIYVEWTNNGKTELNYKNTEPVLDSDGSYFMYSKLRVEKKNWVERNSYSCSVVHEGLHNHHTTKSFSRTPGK
Description: as §1

[5] = biological target: T4, human BCMA-MMH (extracellular domain of human BCMA with C-terminal myc-myc-hexahistidine tag) (human); assay: SPR Biacore, 25 C, mAb captured via anti-hFc
T4 construct: Monomeric antigen; also called hBCMA.mmh; hBCMA.mmH
T4 chain: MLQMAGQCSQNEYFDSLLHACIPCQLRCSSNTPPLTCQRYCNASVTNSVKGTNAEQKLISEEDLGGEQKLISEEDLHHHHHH
Description: as §1

[6] = biological target: T5, monkey BCMA-MMH (monkey BCMA with C-terminal myc-myc-hexahistidine tag) (monkey); assay: SPR Biacore, 25 C, mAb captured via anti-hFc
T5 construct: Monomeric antigen; also called mfBCMA.mmh
Description: as §1

[7] = biological target: T6, human CD3 on cells (Jurkat cells, primary human CD8+ T cells) (human, UniProt P07766 23-207; P04234 22-171; P20963 22-164; P09693 23-182); assay: flow cytometry, Jurkat cells (human CD3), median EC50, n=5
T6 construct: CD3 complex as part of the TCR on T cells; also called hCD3; Jurkat-hCD3
T6 sequence (P07766 23-207 limits assumed, chain 1 of 4): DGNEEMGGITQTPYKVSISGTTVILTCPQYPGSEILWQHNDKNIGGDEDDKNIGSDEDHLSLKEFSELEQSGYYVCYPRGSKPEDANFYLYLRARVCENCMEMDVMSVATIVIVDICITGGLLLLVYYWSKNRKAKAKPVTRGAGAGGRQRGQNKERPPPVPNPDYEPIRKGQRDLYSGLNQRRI
T6 sequence (P04234 22-171 limits assumed, chain 2 of 4): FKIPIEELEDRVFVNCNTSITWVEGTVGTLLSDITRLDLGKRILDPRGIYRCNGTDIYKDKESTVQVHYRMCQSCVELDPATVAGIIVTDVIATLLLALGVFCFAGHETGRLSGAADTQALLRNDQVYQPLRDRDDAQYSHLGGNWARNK
T6 sequence (P20963 22-164 limits assumed, chain 3 of 4): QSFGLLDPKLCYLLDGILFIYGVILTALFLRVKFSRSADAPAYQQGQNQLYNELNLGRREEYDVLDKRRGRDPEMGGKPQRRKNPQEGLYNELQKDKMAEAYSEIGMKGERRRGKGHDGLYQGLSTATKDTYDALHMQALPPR
T6 sequence (P09693 23-182 limits assumed, chain 4 of 4): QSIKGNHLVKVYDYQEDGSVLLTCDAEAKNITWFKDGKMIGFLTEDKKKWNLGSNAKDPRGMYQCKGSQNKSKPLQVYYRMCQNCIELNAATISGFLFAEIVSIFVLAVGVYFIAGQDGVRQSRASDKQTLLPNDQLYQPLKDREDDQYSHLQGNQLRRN
Description: (§2) Flow cytometric analysis was utilized to determine binding of BCMA×CD3 bispecific antibodies to human and cynomolgus CD3 (Jurkat cells, mfCD3 engineered Jurkat cells, primary human CD8+ and cynomolgus CD8+ T cells). Briefly, 1e05 cells/well were incubated in the presence of FACS wash with block (PBS+1% filtered FBS+5% mouse serum) with a serial dilution of BCMA×CD3 and control antibodies for 30 minutes on ice. After incubation, the cells were washed twice with cold FACS wash (PBS+1% filtered FBS) and bound antibody was detected by incubating with Alexa647-conjugated anti-human secondary antibody on ice for an additional 30 minutes. Wells containing no antibody or secondary only were used as a control. For the detection of monkey and human T cells, a cocktail of human and cynomolgus cross-reactive antibodies to CD4, CD8 and CD16 was added to the anti-human secondary. After incubation, cells were washed, re-suspended in 200 μL cold PBS containing 1% filtered FBS and analyzed by flow cytometry on a BD FACS Canto II. Cells were gated by FSC-H by FSC-A to select singlet events, followed by side and forward scatters to select for live events. For monkey T cells, additional gating on CD8+/CD16-cells was performed.
(§3) EC50 values for FACS binding were calculated using 4-parameter non-linear regression analysis in Prism software.

[8] = biological target: T6, human CD3 on cells (Jurkat cells, …); assay: flow cytometry, primary human CD8+ T cells, median EC50, n=1
Description: as §2, §3

B1: bsAb25441D bispecific antibody (REGN5458), anti-BCMA x anti-CD3 (bispecific antibody, human IgG4 S228P, kappa)
heavy 1: EVQLVESGGGLVQPGGSLRLSCAASGFTFSNFWMTWVRQAPGKGLEWVANMNQDGSEKYYVDSVKGRFTISRDNAKSSLYLQMNSLRAEDTAVYYCARDREYCISTSCYDDFDYWGQGTLVTVSSASTKGPSVFPLAPCSRSTSESTAALGCLVKDYFPEPVTVSWNSGALTSGVHTFPAVLQSSGLYSLSSVVTVPSSSLGTKTYTCNVDHKPSNTKVDKRVESKYGPPCPPCPAPPVAGPSVFLFPPKPKDTLMISRTPEVTCVVVDVSQEDPEVQFNWYVDGVEVHNAKTKPREEQFNSTYRVVSVLTVLHQDWLNGKEYKCKVSNKGLPSSIEKTISKAKGQPREPQVYTLPPSQEEMTKNQVSLTCLVKGFYPSDIAVEWESNGQPENNYKTTPPVLDSDGSFFLYSRLTVDKSRWQEGNVFSCSVMHEALHNHYTQKSLSLSLGK
heavy 2: EVQLVESGGGLVQPGRSLRLSCAASGFTFDDYSMHWVRQAPGKGLEWVSGISWNSGSKGYADSVKGRFTISRDNAKNSLYLQMNSLRAEDTALYYCAKYGSGYGKFYHYGLDVWGQGTTVTVSSASTKGPSVFPLAPCSRSTSESTAALGCLVKDYFPEPVTVSWNSGALTSGVHTFPAVLQSSGLYSLSSVVTVPSSSLGTKTYTCNVDHKPSNTKVDKRVESKYGPPCPPCPAPPVAGPSVFLFPPKPKDTLMISRTPEVTCVVVDVSQEDPEVQFNWYVDGVEVHNAKTKPREEQFNSTYRVVSVLTVLHQDWLNGKEYKCKVSNKGLPSSIEKTISKAKGQPREPQVYTLPPSQEEMTKNQVSLTCLVKGFYPSDIAVEWESNGQPENNYKTTPPVLDSDGSFFLYSRLTVDKSRWQEGNVFSCSVMHEALHNRFTQKSLSLSPGK
light: not shown
notes: Anti-BCMA arm from mAb21581, anti-CD3 arm and common light chain from mAb7221G; also called bsAb25441D9; mAb25441D
Median EC50, % Survival of Molp8 target cells, human effector cells [1]: 0.707 nM | Median EC50, % Survival of RPMI8226 target cells, human effector cells [1]: 0.0345 nM | Median EC50, % T activation with Molp8 target cells, human effector cells [1]: 1.1 nM | Median EC50, % T activation with RPMI8226 target cells, human effector cells [1]: 0.0649 nM | Median EC50, % Survival of H929 target cells, cynomolgus effector cells [2]: 0.0234 nM | Median EC50, % T activation with H929 target cells, cynomolgus effector cells [2]: 0.0683 nM | 30 nM mBCMA.mFc Bind (RU) [3]: 2.7 RU | binding result [3]: no binding (tested: 30 nM) | 30 nM hBCMA.mFc Bind (RU) [4]: 107 RU | Kd [4]: ≤ 0.0223 nM | t1/2 [4]: ≤ 1160 min | 90 nM hBCMA.mmh Bind (RU) [5]: 19.9 RU | Kd [5]: 1.06 nM | t1/2 [5]: 13.2 min | 90 nM mfBCMA.mmh Bind (RU) [6]: 14.8 RU | Kd [6]: 49.9 nM | t1/2 [6]: 1.3 min | EC50 [7]: 15 nM | EC50 [8]: 32 nM

B2: bsAb25442D bispecific antibody (REGN5459), anti-BCMA x anti-CD3 (bispecific antibody, human IgG4 S228P, kappa)
heavy 1: B1 heavy 1
heavy 2: B1 heavy 2 with K58I, H108Y, L111M
light: not shown
notes: Anti-BCMA arm from mAb21581, anti-CD3 arm and common light chain from mAb7221G20; also called mAb25442D; mAb25442D-A647
Median EC50, % Survival of Molp8 target cells, human effector cells [1]: 1.36 nM | Median EC50, % Survival of RPMI8226 target cells, human effector cells [1]: 0.106 nM | Median EC50, % T activation with Molp8 target cells, human effector cells [1]: 6.47 nM | Median EC50, % T activation with RPMI8226 target cells, human effector cells [1]: 0.75 nM | Median EC50, % Survival of H929 target cells, cynomolgus effector cells [2]: 0.0692 nM | Median EC50, % T activation with H929 target cells, cynomolgus effector cells [2]: 0.158 nM | 30 nM mBCMA.mFc Bind (RU) [3]: 2.4 RU | binding result [3]: no binding (tested: 30 nM) | 30 nM hBCMA.mFc Bind (RU) [4]: 96.8 RU | Kd [4]: ≤ 0.0223 nM | koff [4]: ≤ 1e-05 s⁻¹ | kon [4]: 449000 M⁻¹ s⁻¹ | t1/2 [4]: ≤ 1160 min | 90 nM hBCMA.mmh Bind (RU) [5]: 17 RU | Kd [5]: 1.38 nM | koff [5]: 0.00101 s⁻¹ | kon [5]: 730000 M⁻¹ s⁻¹ | t1/2 [5]: 11.5 min | 90 nM mfBCMA.mmh Bind (RU) [6]: 12.7 RU | Kd [6]: 38.8 nM | koff [6]: 0.00864 s⁻¹ | kon [6]: 223000 M⁻¹ s⁻¹ | t1/2 [6]: 1.3 min | EC50 [7]: 558 nM | EC50 [8]: 4710 nM

— patent US20210206865A1 (Regeneron, published 2021)
